T1: Saccharomyces cerevisiae Elp1 (Saccharomyces cerevisiae, UniProt Q06706 1-1349)
T1 construct: Elp1, S. cerevisiae, full-length ORF; also called ScElp1; source: S. cerevisiae DS1-2b, overexpressed, purified within ScElongator
T1 sequence (looked up): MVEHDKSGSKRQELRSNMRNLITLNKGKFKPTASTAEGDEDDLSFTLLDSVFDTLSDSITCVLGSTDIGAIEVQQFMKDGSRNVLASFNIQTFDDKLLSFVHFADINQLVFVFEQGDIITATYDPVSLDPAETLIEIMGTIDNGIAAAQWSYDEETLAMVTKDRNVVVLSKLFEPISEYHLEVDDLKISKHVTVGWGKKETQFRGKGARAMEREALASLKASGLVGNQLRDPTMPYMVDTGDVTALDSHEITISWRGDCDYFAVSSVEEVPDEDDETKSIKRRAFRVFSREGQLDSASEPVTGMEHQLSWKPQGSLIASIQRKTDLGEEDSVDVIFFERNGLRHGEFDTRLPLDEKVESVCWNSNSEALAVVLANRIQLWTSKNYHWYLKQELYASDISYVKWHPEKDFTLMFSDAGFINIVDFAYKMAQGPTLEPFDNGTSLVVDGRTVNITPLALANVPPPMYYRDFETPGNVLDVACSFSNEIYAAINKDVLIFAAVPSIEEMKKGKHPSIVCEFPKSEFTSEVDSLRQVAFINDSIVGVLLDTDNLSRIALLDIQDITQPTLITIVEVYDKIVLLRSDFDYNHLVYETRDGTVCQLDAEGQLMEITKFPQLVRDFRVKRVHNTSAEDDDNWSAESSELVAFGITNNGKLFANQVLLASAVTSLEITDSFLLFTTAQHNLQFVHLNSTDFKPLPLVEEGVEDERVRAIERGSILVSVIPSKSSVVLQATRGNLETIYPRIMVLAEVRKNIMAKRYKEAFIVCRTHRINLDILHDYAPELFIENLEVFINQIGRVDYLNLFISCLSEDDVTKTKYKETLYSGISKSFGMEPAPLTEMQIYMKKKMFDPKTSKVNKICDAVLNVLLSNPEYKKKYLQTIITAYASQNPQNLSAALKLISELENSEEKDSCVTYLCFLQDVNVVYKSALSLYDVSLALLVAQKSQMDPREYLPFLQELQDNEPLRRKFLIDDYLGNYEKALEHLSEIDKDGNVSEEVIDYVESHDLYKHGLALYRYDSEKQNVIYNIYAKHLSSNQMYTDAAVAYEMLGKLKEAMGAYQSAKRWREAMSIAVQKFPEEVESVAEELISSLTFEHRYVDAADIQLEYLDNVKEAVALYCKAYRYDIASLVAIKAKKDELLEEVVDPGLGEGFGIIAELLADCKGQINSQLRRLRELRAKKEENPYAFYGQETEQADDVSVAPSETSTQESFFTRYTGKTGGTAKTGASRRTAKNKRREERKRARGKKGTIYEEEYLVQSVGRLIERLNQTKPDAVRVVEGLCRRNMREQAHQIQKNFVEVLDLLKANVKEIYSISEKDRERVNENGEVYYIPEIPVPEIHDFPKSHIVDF

T2: Saccharomyces cerevisiae Elp3 (Saccharomyces cerevisiae, UniProt Q02908 1-557)
T2 construct: Elp3, S. cerevisiae, full-length ORF; also called ScElp3; source: S. cerevisiae DS1-2b, overexpressed, purified within ScElongator; not shown: Twin-Strep-tag, C-terminal, kept
T2 sequence (looked up): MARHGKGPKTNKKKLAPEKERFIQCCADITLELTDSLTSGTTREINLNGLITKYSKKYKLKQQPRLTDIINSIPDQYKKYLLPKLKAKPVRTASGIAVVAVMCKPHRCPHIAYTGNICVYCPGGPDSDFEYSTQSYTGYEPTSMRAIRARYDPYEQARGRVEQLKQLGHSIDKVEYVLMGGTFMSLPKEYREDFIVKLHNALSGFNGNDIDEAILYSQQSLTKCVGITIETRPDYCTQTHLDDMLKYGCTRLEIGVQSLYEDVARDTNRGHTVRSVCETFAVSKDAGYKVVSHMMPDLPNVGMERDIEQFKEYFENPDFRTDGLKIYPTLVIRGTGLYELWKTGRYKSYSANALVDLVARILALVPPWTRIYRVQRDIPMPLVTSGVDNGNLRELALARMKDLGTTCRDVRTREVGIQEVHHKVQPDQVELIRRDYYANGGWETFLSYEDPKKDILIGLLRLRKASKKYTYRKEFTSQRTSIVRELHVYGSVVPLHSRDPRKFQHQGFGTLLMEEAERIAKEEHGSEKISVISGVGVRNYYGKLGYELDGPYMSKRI

B1: Saccharomyces cerevisiae Elp4 (natural protein, UniProt Q02884 1-456, looked up)
chain: MSFRKRGEILNDRGSGLRGPLLRGPPRTSSTPLRTGNRRAPGNVPLSDTTARLKKLNIADESKTKMGLDSSHVGVRPSPATSQPTTSTGSADLDSILGHMGLPLGNSVLVEEQSTTEFHSILGKLFAAQGIVHNRISDSSADKTRNGDTHVIVLSLNQMFAKELPGIYKGSRKQMKKNLISEEESKVTVQNLNETQRSTPSRYKDLKIAWKYKLADEKRLGSPDRDDIQQNSEYKDYNHQFDITTRLMPAPIASELTFIAPTQPVSTILSQIEQTIKRNDKKLIRIVIPSLLHPAMYPPKMFESSEIIGLMHGVRSLVKKYYERVVLFASISIDIITPPLLVLLRNMFDSVINLEPFNQEMTEFLERVYKSQPGKIQHGLVHILKLPVFTDRGEMRVLKSEWAFKNGRKKFEIEQWGIPVDDAEGSAASEQSHSHSHSDEISHNIPAKKTKISLDY
notes: Elp4, S. cerevisiae, full-length ORF; also called ScElp4; source: S. cerevisiae DS1-2b, overexpressed, purified within ScElongator

Assays:
Settings in all cases: both partners purified
[1] = target: T3, Saccharomyces cerevisiae Elp123 subcomplex (Saccharomyces cerevisiae, UniProt Q06706 1-1349; P42935 1-788; Q02908 1-557); test: cryo-EM structure; ScElongator purified from overexpressing yeast, native sample (4.35 Å) and BS3-stabilised sample (6.6 Å; two-lobed map 17.2 Å); sample buffer 20 mM HEPES pH 7.5, 100 mM NaCl, 3 mM DTT
T3 construct: Elp1, S. cerevisiae, full-length ORF; Elp2, S. cerevisiae, full-length ORF; Elp3, S. cerevisiae, full-length ORF; also called ScElp123; yeast Elp123; not shown: Twin-Strep-tag, C-terminal, kept; copies: 2 + 2 + 2
T3 sequence (P42935 whole entry, one chain of several): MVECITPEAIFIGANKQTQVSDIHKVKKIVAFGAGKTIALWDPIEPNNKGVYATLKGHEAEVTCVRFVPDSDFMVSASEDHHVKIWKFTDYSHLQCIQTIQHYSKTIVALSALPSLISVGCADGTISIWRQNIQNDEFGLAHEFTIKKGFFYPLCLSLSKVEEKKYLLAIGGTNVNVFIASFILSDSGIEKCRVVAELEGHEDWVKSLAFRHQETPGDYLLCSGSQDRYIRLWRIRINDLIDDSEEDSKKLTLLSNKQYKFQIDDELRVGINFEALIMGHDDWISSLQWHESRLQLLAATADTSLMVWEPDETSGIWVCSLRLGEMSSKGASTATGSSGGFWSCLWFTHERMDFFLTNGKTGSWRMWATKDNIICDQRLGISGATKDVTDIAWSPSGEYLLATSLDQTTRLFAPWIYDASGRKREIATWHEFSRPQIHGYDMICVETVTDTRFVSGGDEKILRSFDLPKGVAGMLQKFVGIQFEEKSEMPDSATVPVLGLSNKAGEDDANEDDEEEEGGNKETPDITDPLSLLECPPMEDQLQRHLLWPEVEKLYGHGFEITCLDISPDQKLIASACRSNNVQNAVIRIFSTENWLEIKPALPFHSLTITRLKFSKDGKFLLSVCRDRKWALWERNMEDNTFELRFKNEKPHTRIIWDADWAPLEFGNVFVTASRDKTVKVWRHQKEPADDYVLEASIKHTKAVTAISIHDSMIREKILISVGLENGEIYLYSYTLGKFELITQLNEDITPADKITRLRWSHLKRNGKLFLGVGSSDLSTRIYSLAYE

[2] = target: T1, Saccharomyces cerevisiae Elp1; test: as above
[3] = target: T2, Saccharomyces cerevisiae Elp3; test: as above
[4] = target: B1; test: cryo-EM structure; free full-length ScElp456 rings found in one data set, 3.7 Å

Row | Binder | binding result [1] | binding result [2] | binding result [3] | binding result [4]
1 | Saccharomyces cerevisiae Elp456 subcomplex (hetero-hexameric ring) (complex, Elp4, S. cerevisiae, full-length ORF; Elp5, S. cerevisiae, full-length ORF; Elp6, S. cerevisiae, full-length ORF; Symmetric dimer of trimers; also called ScElp456; yeast Elp456; source: S. cerevisiae DS1-2b, overexpressed, purified with ScElongator (IgG Sepharose with TEV elution, StrepTrap, Superose 6); free rings seen in one data set; not shown: protein A (Staphylococcus aureus), C-terminal, …) chain 1: MSFRKRGEILNDRGSGLRGPLLRGPPRTSSTPLRTGNRRAPGNVPLSDTTARLKKLNIADESKTKMGLDSSHVGVRPSPATSQPTTSTGSADLDSILGHMGLPLGNSVLVEEQSTTEFHSILGKLFAAQGIVHNRISDSSADKTRNGDTHVIVLSLNQMFAKELPGIYKGSRKQMKKNLISEEESKVTVQNLNETQRSTPSRYKDLKIAWKYKLADEKRLGSPDRDDIQQNSEYKDYNHQFDITTRLMPAPIASELTFIAPTQPVSTILSQIEQTIKRNDKKLIRIVIPSLLHPAMYPPKMFESSEIIGLMHGVRSLVKKYYERVVLFASISIDIITPPLLVLLRNMFDSVINLEPFNQEMTEFLERVYKSQPGKIQHGLVHILKLPVFTDRGEMRVLKSEWAFKNGRKKFEIEQWGIPVDDAEGSAASEQSHSHSHSDEISHNIPAKKTKISLDY chain 2: MASSSHNPVILLKRILSLTESSPFILCLDSIAQTSYKLIQEFVHQSKSKGNEYPIVYISFETVNKPSYCTQFIDATQMDFVHLVKQIISYLPAATATQAKKHMVIIDSLNYISTEYITRFLSEIASPHCTMVATYHKDIKDENRTVIPDWNNNYPDKLTLLQFMATTIVDIDVVLTGTLDTEEVSELLNEFRIPRGLNNDIFQLRLVNKRKSGRSLEYDFIVNSNTHEYELLSTTKQEEESSSNGLETPEMLQGLTTFNLGTSNKQKLAKDQVALPFLEAQSFGQGGAIVYEYEKDDDYDEEDPYEDPF chain 3: MGSVQRQDLVLFSDQSVLPAHFFQDSNSHNLFFITHQSCTQPLWMINALVETHVLGSPSSLNESSSSMLPSSTRSHAVLASFIHEQNYFTNSLNKLKIPSNNYNVLDFLSDFIVNNIHNKPRDKILSDVLAKFSAAIQNNPTDTIVIIEQPELLLSLVSGLTCSELNNKFITPLLRQCKVLIIVSNSDIFNIDEYDASVHSSNLQNFYKSSFIKSMINLNLNPLKTGFAKDVTGSLHVCRGGAPIATSNTSLHVVENEYLYLNEKESTKLFYR | binds | – | – | –
2 | B1 | – | binds | binds | –
3 | Saccharomyces cerevisiae Elp5 (natural protein, UniProt P38874 1-309, looked up, Elp5, S. cerevisiae, full-length ORF; also called ScElp5; source: S. cerevisiae DS1-2b, overexpressed, purified within ScElongator) MASSSHNPVILLKRILSLTESSPFILCLDSIAQTSYKLIQEFVHQSKSKGNEYPIVYISFETVNKPSYCTQFIDATQMDFVHLVKQIISYLPAATATQAKKHMVIIDSLNYISTEYITRFLSEIASPHCTMVATYHKDIKDENRTVIPDWNNNYPDKLTLLQFMATTIVDIDVVLTGTLDTEEVSELLNEFRIPRGLNNDIFQLRLVNKRKSGRSLEYDFIVNSNTHEYELLSTTKQEEESSSNGLETPEMLQGLTTFNLGTSNKQKLAKDQVALPFLEAQSFGQGGAIVYEYEKDDDYDEEDPYEDPF | – | binds | – | binds
